Reference: the supplement of paper PMC9233669
Variants at the floor of the assay were thinned out.

Assays:
biotinyl-Phe-oxazolone = test: self-aminoacylation, catalytic enhancement (BFO) (fold over background); higher = more active; k-Seq, kA / k0A0; sequences stand for … in GGGAAUGGAUCCACAUCUACGAAUUC…UUCACUGCAGACUUGACGAAGCUG
How it was run: (§1)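 Each biotinyl-aminoacyl-oxazolone, at 2–1250 μM, was incubated with mutagenized RNA pools (0.43 μM) carrying a 21-nt variable region. The 50 μL reactions contained HEPES/NaCl/KCl/MgCl2/CaCl2 buffer with 5% acetonitrile at pH 6.9–7.0 and ran for 90 minutes at room temperature. After streptavidin capture, RNA was measured by qPCR in triplicate and by Illumina sequencing, and catalytic enhancement was calculated as median kA over the uncatalyzed rate from a pseudo-first-order fit of per-sequence fraction reacted.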

biotinyl-Ile-oxazolone = test: self-aminoacylation, catalytic enhancement (BIO) (fold over background); higher = more active; k-Seq, kA / k0A0; sequences stand for … in GGGAAUGGAUCCACAUCUACGAAUUC…UUCACUGCAGACUUGACGAAGCUG
How it was run: as §1

biotinyl-Met-oxazolone = test: self-aminoacylation, catalytic enhancement (BMO) (fold over background); higher = more active; k-Seq, kA / k0A0; sequences stand for … in GGGAAUGGAUCCACAUCUACGAAUUC…UUCACUGCAGACUUGACGAAGCUG
How it was run: as §1

biotinyl-Val-oxazolone = test: self-aminoacylation, catalytic enhancement (BVO) (fold over background); higher = more active; k-Seq, kA / k0A0; sequences stand for … in GGGAAUGGAUCCACAUCUACGAAUUC…UUCACUGCAGACUUGACGAAGCUG
How it was run: as §1

biotinyl-Leu-oxazolone = test: self-aminoacylation, catalytic enhancement (BLO) (fold over background); higher = more active; k-Seq, kA / k0A0; sequences stand for … in GGGAAUGGAUCCACAUCUACGAAUUC…UUCACUGCAGACUUGACGAAGCUG
How it was run: as §1

biotinyl-Trp-oxazolone = test: self-aminoacylation, catalytic enhancement (BWO) (fold over background); higher = more active; k-Seq, kA / k0A0; sequences stand for … in GGGAAUGGAUCCACAUCUACGAAUUC…UUCACUGCAGACUUGACGAAGCUG
How it was run: as §1

Sequence	self-aminoacylation (biotinyl-Phe-oxazolone)	self-aminoacylation (biotinyl-Ile-oxazolone)	self-aminoacylation (biotinyl-Met-oxazolone)	self-aminoacylation (biotinyl-Val-oxazolone)	self-aminoacylation (biotinyl-Leu-oxazolone)	self-aminoacylation (biotinyl-Trp-oxazolone)
CCACACUUCACGAAAUCGGUC [Fam1B.1 aminoacylation ribozyme variant]	0.814	0.987	1.07	1.09	1.16	1.02
CCACACUUCACGCAAUCGAUC [Fam1B.1 aminoacylation ribozyme variant]	0.676	0.568	0.55	0.606	0.514	0.618
CCACACUUCACGCGAUCGGUC [Fam1B.1 aminoacylation ribozyme variant]	6.79	1.46	1.48	2.17	1.84	2.37
CCACACUUCACGUAAUCGGUC [Fam1B.1 aminoacylation ribozyme variant]	0.967	0.892	0.822	0.914	0.733	0.591
CCACACUUCAGGCAAUCGUUC [Fam1B.1 aminoacylation ribozyme variant]	0.772	0.704	0.618	0.792	0.585	0.422
CCACACUUCAGGCUAUCGGUC [Fam1B.1 aminoacylation ribozyme variant]	0.514	1.33	1.1	1.33	1.23	1.39
CCACACUUCAGGUAAUCGGUC [Fam1B.1 aminoacylation ribozyme variant]	1.07	0.805	0.887	1.07	0.824	0.712
CCACACUUCAUACAAUCGGUC [Fam1B.1 aminoacylation ribozyme variant]	0.729	0.618	0.608	0.744	0.703	0.726
CCACACUUCAUGCAAGCGGUC [Fam1B.1 aminoacylation ribozyme variant]	0.633	1.08	0.854	0.835	1.01	0.681
CCACACUUCAUGCAAUCGGUG [Fam1B.1 aminoacylation ribozyme variant]	27	2.55	4.27	2.65	5.5	4.65
CCACACUUCCAGCAACCGGUC [Fam1B.1 aminoacylation ribozyme variant]	0.744	1.15	0.879	1.34	0.925	1.14
CCACACUUCCAGCAAUCGCUC [Fam1B.1 aminoacylation ribozyme variant]	1.22	1.69	1.54	1.83	1.35	1.59
CCACACUUCCAGCAAUGGGUC [Fam1B.1 aminoacylation ribozyme variant]	1.22	1.34	0.956	1.38	0.88	0.884
